In PMC3874162 (Nucleic Acids Research, 2013):

B1: Cdc13-MOB (middle OB-fold domain, residues 344-496) (domain or fragment, S. cerevisiae, UniProt P32797 344-496, looked up)
chain: KAISYEQLSLASVGSVERLEGKIVGMNPPQFASINEFKYCTLKLYFTQLLPNVPDKVLVPGVNCIEIVIPTRERICELFGVLNCQSDKISDILLLEKPDRISVEVERILWDNDKTASPGMAVWSLKNISTDTQAQAQVQVPAQSSASIDPSRT
B2: Cdc13 (full-length S. cerevisiae Cdc13) (natural protein, UniProt P32797 1-924, looked up)
chain: MDTLEEPECPPHKNRIFVSSSKDFEGYPSKAIVPVQFVALLTSIHLTETKCLLGFSNFERRGDQSQEDQYLIKLKFKDRGSERLARITISLLCQYFDIELPDLDSDSGASPTVILRDIHLERLCFSSCKALYVSKHGNYTLFLEDIKPLDLVSVISTISTKSTNSSKHSSSELISECDLNNSLVDIFNNLIEMNRDEKNRFKFVKLIHYDIELKKFVQDQQKVLSQKSKAAAINPFFVPNRLGIPYIESQNEFNSQLMTLNVDEPTTDISNMGEEMHDSADPIEDSDSSTTSSTGKYFSSKSYIQSQTPERKTSVPNNWHDDDSGSKRKRKLSFHSPNASSIRKAISYEQLSLASVGSVERLEGKIVGMNPPQFASINEFKYCTLKLYFTQLLPNVPDKVLVPGVNCIEIVIPTRERICELFGVLNCQSDKISDILLLEKPDRISVEVERILWDNDKTASPGMAVWSLKNISTDTQAQAQVQVPAQSSASIDPSRTRMSKMARKDPTIEFCQLGLDTFETKYITMFGMLVSCSFDKPAFISFVFSDFTKNDIVQNYLYDRYLIDYENKLELNEGFKAIMYKNQFETFDSKLRKIFNNGLRDLQNGRDENLSQYGIVCKMNIKVKMYNGKLNAIVRECEPVPHSQISSIASPSQCEHLRLFYQRAFKRIGESAISRYFEEYRRFFPIHRNGSHLAKLRFDEVKHEPKKSPTTPALAEHIPDLNADVSSFDVKFTDISSLLDSSARLPRPQQTHKSNTLYSCEGRIIAIEYHASDLCFHITNELPLLQTRGLAPERVLQLHIITSKNFAYFFNRSSAYLQRQPLEEKYTQLAQFLGHSFKFNITSSLTLFPDTTVALQIWCPIECTFRELQQQLAHPKVAAAPDSGSLDCAINATVNPLRLLAAQNGVTVKKEEDNDDDAGAVPTS

Key:
SEC-MALS = target: the molecule itself; experiment: SEC-MALS
native gel or EMSA = target: the molecule itself; experiment: native gel or EMSA

Protein	stoichiometry N (SEC-MALS)	Kd (native gel or EMSA)
B1	2	–
B2	2	5.1 nM
